Assay results published in article PMC10966353.

Molecular target: A/Singapore/INFIMH-16-0019/2016 hemagglutinin with a C-terminal sfGFP, GCN4 trimerization domain and Strep-tag (influenza A virus A/Singapore/INFIMH-16-0019/2016)
Assay: negative stain electron microscopy

“A/Singapore/INFIMH-16-0019/2016 hemagglutinin with a C-terminal sfGFP, GCN4 trimerization domain and Strep-tag” gave a stoichiometry N of 3.
